# Molecular target: the molecule itself
# Experiment: mass photometry
protein,measurement,value
"RADX-N (RADX 43-560, C-terminal truncation construct) (domain or fragment, human, UniProt Q6NSI4 43-560, looked up) RSWIQKVLEQIMDSPRQCVTPSEVVPVTVLAVQRYLLEDEPRDTVPKPPLYCYDVTISDGVYQEKCYLDPSLNSLVYQNILKVGIQMRISRVSCLYNEKRIGQGILCIDNVHCGETSDSISLETPFRNRAHQEKPERPLRGGKSHYLALWNNEDPYGDIWLTDKQPEEHNFSDTKIISLSHLEMTWTNRRNFPALLVRILHKSKLRYYGKPDKKMIEPYQTFLEVADSSGTVSVIMWNALCPEWYKSLRVGLVLLLQDYSVKKSYPFRIQPVPVDPQIKLISTMEICLNLRDPPTNIIIIPEKQVKPEWRLPKLNHRFTTRSELDDMPENCICDVIGLLVFVGRVQRSKKKENREDFWSYRWIHIADGTSEQPFIVELFSTSQPEIFENIYPMAYFVCTQLKVVRNDNQVPKLLYLTTTNESGVFITGHRGQPYTYDAKVKNFIQWIRTKSDSGEQKNMVIGGYYPYPPVPETFSKYSSSIKVESLLTAISEVRKEIEDLQYREQKRIAIQGIITAIK",stoichiometry N,2
